Reference: US20260109745A1 (published 2026)
Ends that are not written are not given here.

Target: T1, NEO-101 antibody (chimeric NPC-1 antibody)
T1 construct: Chimeric (murine variable, human constant regions); Used unlabelled, biotinylated, FITC-labelled or coupled to Dynal beads depending on the assay; also called NPC-1C; NPC-1-C
Assay: ELISA: peptide-biotin on NEO-101 coated plate
Description: To solve the poor binding of peptides to 96 well plate, peptides were biotinylated using EZ-link micro NHS Biotinylation kit (Pierce Cat #21955), and labeling efficiency checked by dot blot (50%). […] The solution was blocked with 200 μl of 1% milk in TBS at RT for 20 min. Aliquots of 100 μl peptide-biotin (1 μg/ml) in 0.1% milk-TBS were added, and incubated at RT of 2 hr, followed by three washes with TBST. Streptavidin-HRP (100 μl of 1:2000 diluted in 1:10 diluted blocking buffer) was added, and the wells incubated at RT for 1 hr, followed by three washed. TMB was then added, and the wells were read at 450 nm. Positive controls for NPC-1C binding used 4B6-biotin. The results are shown in FIG. 11, which indicates biotinylated peptides bind to NPC-1C coated plate.

T1 sequence (VH, as listed by the source limits assumed, chain 1 of 2): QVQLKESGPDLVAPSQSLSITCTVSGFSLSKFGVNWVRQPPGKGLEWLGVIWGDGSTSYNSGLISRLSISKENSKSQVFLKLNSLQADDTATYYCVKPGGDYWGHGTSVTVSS
T1 sequence (VL, as listed by the source limits assumed, chain 2 of 2): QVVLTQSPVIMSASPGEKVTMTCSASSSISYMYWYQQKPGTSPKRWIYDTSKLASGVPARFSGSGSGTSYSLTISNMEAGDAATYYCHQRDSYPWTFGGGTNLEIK

B1: synthetic peptide 4-1-3-C11 (control peptide) (peptide)
peptide: YSHSVHAIEDNWSPRGGGGS
modifications: also: biotinylated (NHS kit) in direct ELISA, unlabelled in competition assays
notes: Negative control peptide
B1: no binding (tested: 1 ug/ml).
